Experimental data from PMC8733265, “Microscale thermophoresis suggests a new model of regulation of cardiac myosin function via interaction with cardiac myosin-binding protein C” (The Journal of Biological Chemistry, 2021).

B1: recombinant human cardiac myosin tail domain, first 126 amino acids of myosin subfragment-2 (myosin S2Δ) (domain or fragment, UniProt P12883 838-963, looked up)
chain: PLLKSAEREKEMASMKEEFTRLKEALEKSEARRKELEEKMVSLLQEKNDLQLQVQAEQDNLADAEERCDQLIKNKIQLEAKVKEMNERLEDEEEMNAELTAKKRKLEDECSELKRDIDDLELTLAK
modifications: Alexa 647-NHS label where it was the labelled partner; unlabelled where it was titrated
notes: human cardiac (β) myosin heavy chain, first 126 amino acids of subfragment-2; also called myosin tails; source: E. coli BL21(DE3)-RIPL, purified (HisTrapFF, TEV, ion exchange); not shown: His tag, N-terminal, cleaved
B2: isolated m-motif of cMyBP-C (domain or fragment)
chain: HEAMGTGDLDLLSAFRRTSLAGGGRRISDSHEDTGILDFSSLLKKRDSFRTPRDSKLEAPAEEDVWEILRQAPPSEYERIAFQYGVTDLRGMLKRLKGMRRDEKK
modifications: here or on the partner: Unphosphorylated (bacterial expression). Limits taken as the interval between the annotated C1 (153-256) and C2 (362-452) domains. / Limits not printed. C-terminus from S2Δ as the first 126 residues o
B3: isolated m-motif of cMyBP-C (domain or fragment)
chain: B2 chain
B4: miniHMM, recombinant fragment of human cardiac myosin containing the myosin S2Δ tail domain bound to two RLCs (complex)
chain 1: RDSLLVIQWNIRAFMGVKNWPWMKLYFKIKPLLKSAEREKEMASMKEEFTRLKEALEKSEARRKELEEKMVSLLQEKNDLQLQVQAEQDNLADAEERCDQLIKNKIQLEAKVKEMNERLEDEEEMNAELTAKKRKLEDECSELKRDIDDLELTLAK
chain 2: APKKAKKRAGGANSNVFSMFEQTQIQEFKEAFTIMDQNRDGFIDKNDLRDTFAALGRVNVKNEEIDEMIKEAPGPINFTVFLTMFGEKLKGADPEETILNAFKVFDPEGKGVLKADYVREMLTTQAERFSKEEVDQMFAAFPPDVTGNLDYKNLVHIITHGEEKD
modifications: Limits not printed. C-terminus from S2Δ as the first 126 residues of S2 (838-963 by convention). N-terminus taken at the start of the RLC-binding heavy-chain helix (about 808). RLC initiator Met …

Key:
[1] = biological target: bovine β-cardiac myosin S1 (bovine) (UniProt Q9BE39); experiment: MST; Monolith NT.115; 100 nmol/l Alexa647-labelled protein fixed, partner titrated; 20 mmol/l Mops pH 7, 1 mmol/l MgCl2, 50 mmol/l KCl, 1 mmol/l DTT, 0.05% Tween-20
[2] = biological target: recombinant human cardiac myosin tail domain, first 126 amino acids of myosin subfragment-2 (myosin S2Δ) (human) (UniProt P12883); experiment: as above
[3] = biological target: bovine β-cardiac myosin S1 (bovine) (UniProt Q9BE39); experiment: MST; competition: C5C7 titrated into a mixture of Alexa647-labelled myosin S1 and C2C4
[4] = biological target: bovine β-cardiac myosin S1 myosin S1 (head domain) (UniProt Q9BE39); experiment: microscale thermophoresis titration; settings: reference: unphosphorylated C0C2
[5] = biological target: human cardiac myosin tail domain (myosin S2Δ; also the heavy-chain part of miniHMM) miniHMM heavy-chain part containing myosin S2Δ (UniProt P12883); experiment: microscale thermophoresis titration; settings: reference: unphosphorylated C0C2
[6] = biological target: human cardiac myosin tail domain (myosin S2Δ; also the heavy-chain part of miniHMM) miniHMM heavy-chain part containing myosin S2Δ (UniProt P12883); experiment: microscale thermophoresis titration; settings: reference: unphosphorylated C0C2; remark: listed apart in the source
[7] = biological target: cMyBP-C (cardiac myosin-binding protein C) C0C2 (C0-P/A-C1-m-C2) (UniProt Q14896); experiment: microscale thermophoresis titration; settings: reference: unphosphorylated miniHMM
[8] = biological target: cMyBP-C (cardiac myosin-binding protein C) C0C2 (C0-P/A-C1-m-C2) (UniProt Q14896); experiment: microscale thermophoresis titration; settings: reference: unphosphorylated miniHMM; remark: listed apart in the source
[9] = biological target: T1, bovine β-cardiac myosin S1 (bovine, UniProt Q9BE39 1-1935; P85100 1-199; Q3SZE5 1-166, Alexa 647-NHS label (chain and site not stated)); experiment: MST; Monolith NT.115; 100 nmol/l Alexa647-labelled protein fixed, partner titrated; 20 mmol/l Mops pH 7, 1 mmol/l MgCl2, 50 mmol/l KCl, 1 mmol/l DTT, 0.05% Tween-20
T1 construct: β-cardiac myosin heavy chain (MHC), bovine, the part that lies in subfragment 1; essential light chain (ELC) of bovine cardiac myosin, labelled on the gel of isolated S1; regulatory light chain (RLC) of bovine cardiac myosin, labelled on the gel of isolated S1; the text says that an intact RLC neck region is not present in this S1; Used at 100 nmol/l as the Alexa647-labelled partner in MST; also …

C0C1 fragment of cMyBP-C = biological target: T2, C0C1 fragment of cMyBP-C (UniProt Q14896 1-258); experiment: as above; settings: both partners purified
T2 construct: also called C0-P/A-C1; source: E. coli BL21(DE3)-RIPL, purified (HisTrapFF, TEV, ion exchange); not shown: His tag, N-terminal, cleaved

C5C7 segment of cMyBP-C = biological target: T3, C5C7 segment of cMyBP-C (UniProt Q14896 645-967); experiment: as above; settings: both partners purified
T3 construct: also called C5–C6–C7; wildtype C5C7; source: E. coli BL21(DE3)-RIPL, purified (HisTrapFF, TEV, ion exchange); not shown: His tag, N-terminal, cleaved
T3 sequence (looked up): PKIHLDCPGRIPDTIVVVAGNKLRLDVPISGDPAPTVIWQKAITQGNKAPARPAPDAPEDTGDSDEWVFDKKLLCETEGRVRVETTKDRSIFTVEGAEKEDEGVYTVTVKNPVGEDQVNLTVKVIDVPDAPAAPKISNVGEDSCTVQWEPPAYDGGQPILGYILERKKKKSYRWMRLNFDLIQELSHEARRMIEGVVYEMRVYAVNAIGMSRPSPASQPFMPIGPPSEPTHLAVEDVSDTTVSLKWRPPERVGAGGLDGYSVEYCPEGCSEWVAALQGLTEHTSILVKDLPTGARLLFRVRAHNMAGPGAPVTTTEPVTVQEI

[10] = biological target: miniHMM, recombinant fragment of human cardiac myosin containing the myosin S2Δ tail domain bound to two RLCs (human), P12883; experiment: MST; as the other MST titrations but pH adjusted to 6.2 for the isolated m-motif; 100 nmol/l Alexa647-labelled protein fixed
[11] = biological target: T1, bovine β-cardiac myosin S1; experiment: as above; settings: both partners purified
[12] = biological target: B1; experiment: as above; settings: both partners purified
domain C0 of cMyBP-C = biological target: T4, domain C0 of cMyBP-C (UniProt Q14896 1-101); experiment: MST; Monolith NT.115; 100 nmol/l Alexa647-labelled protein fixed, partner titrated; 20 mmol/l Mops pH 7, 1 mmol/l MgCl2, 50 mmol/l KCl, 1 mmol/l DTT, 0.05% Tween-20; settings: both partners purified
T4 construct: source: E. coli BL21(DE3)-RIPL, purified (HisTrapFF, TEV, ion exchange); not shown: His tag, N-terminal, cleaved

domain C1 of cMyBP-C = biological target: T5, domain C1 of cMyBP-C (UniProt Q14896 151-258); experiment: as above; settings: both partners purified
T5 construct: source: E. coli BL21(DE3)-RIPL, purified (HisTrapFF, TEV, ion exchange); not shown: His tag, N-terminal, cleaved

domain C2 of cMyBP-C = biological target: T6, domain C2 of cMyBP-C (UniProt Q14896 362-452); experiment: as above; settings: both partners purified
T6 construct: source: E. coli BL21(DE3)-RIPL, purified (HisTrapFF, TEV, ion exchange); not shown: His tag, N-terminal, cleaved

[13] = biological target: T7, C0C2, cMyBP-C spanning domains C0 to C2 (UniProt Q14896 1-452); experiment: as above; settings: both partners purified
T7 construct: also called N-terminal domains (NTD) of cMyBP-C; C0-P/A-C1-m-C2; source: E. coli BL21(DE3)-RIPL, purified (HisTrapFF, TEV, ion exchange); not shown: His tag, N-terminal, cleaved

C2C4 segment of cMyBP-C = biological target: T8, C2C4 segment of cMyBP-C (UniProt Q14896 362-633); experiment: as above; settings: both partners purified
T8 construct: also called C2–C3–C4; C2C4 module; source: E. coli BL21(DE3)-RIPL, purified (HisTrapFF, TEV, ion exchange); not shown: His tag, N-terminal, cleaved
T8 sequence (Q14896 362-633): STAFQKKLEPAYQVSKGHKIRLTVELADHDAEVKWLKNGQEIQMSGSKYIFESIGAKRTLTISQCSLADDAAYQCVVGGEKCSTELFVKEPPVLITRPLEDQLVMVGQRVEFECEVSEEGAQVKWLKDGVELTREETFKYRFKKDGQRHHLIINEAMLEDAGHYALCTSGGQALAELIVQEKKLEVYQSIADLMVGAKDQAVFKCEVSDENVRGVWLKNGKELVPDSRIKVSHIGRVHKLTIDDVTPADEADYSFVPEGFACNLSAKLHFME

Sequence of bovine β-cardiac myosin S1 (bovine) (Q9BE39 whole entry, chain 1 of 2, the tested form may be a part): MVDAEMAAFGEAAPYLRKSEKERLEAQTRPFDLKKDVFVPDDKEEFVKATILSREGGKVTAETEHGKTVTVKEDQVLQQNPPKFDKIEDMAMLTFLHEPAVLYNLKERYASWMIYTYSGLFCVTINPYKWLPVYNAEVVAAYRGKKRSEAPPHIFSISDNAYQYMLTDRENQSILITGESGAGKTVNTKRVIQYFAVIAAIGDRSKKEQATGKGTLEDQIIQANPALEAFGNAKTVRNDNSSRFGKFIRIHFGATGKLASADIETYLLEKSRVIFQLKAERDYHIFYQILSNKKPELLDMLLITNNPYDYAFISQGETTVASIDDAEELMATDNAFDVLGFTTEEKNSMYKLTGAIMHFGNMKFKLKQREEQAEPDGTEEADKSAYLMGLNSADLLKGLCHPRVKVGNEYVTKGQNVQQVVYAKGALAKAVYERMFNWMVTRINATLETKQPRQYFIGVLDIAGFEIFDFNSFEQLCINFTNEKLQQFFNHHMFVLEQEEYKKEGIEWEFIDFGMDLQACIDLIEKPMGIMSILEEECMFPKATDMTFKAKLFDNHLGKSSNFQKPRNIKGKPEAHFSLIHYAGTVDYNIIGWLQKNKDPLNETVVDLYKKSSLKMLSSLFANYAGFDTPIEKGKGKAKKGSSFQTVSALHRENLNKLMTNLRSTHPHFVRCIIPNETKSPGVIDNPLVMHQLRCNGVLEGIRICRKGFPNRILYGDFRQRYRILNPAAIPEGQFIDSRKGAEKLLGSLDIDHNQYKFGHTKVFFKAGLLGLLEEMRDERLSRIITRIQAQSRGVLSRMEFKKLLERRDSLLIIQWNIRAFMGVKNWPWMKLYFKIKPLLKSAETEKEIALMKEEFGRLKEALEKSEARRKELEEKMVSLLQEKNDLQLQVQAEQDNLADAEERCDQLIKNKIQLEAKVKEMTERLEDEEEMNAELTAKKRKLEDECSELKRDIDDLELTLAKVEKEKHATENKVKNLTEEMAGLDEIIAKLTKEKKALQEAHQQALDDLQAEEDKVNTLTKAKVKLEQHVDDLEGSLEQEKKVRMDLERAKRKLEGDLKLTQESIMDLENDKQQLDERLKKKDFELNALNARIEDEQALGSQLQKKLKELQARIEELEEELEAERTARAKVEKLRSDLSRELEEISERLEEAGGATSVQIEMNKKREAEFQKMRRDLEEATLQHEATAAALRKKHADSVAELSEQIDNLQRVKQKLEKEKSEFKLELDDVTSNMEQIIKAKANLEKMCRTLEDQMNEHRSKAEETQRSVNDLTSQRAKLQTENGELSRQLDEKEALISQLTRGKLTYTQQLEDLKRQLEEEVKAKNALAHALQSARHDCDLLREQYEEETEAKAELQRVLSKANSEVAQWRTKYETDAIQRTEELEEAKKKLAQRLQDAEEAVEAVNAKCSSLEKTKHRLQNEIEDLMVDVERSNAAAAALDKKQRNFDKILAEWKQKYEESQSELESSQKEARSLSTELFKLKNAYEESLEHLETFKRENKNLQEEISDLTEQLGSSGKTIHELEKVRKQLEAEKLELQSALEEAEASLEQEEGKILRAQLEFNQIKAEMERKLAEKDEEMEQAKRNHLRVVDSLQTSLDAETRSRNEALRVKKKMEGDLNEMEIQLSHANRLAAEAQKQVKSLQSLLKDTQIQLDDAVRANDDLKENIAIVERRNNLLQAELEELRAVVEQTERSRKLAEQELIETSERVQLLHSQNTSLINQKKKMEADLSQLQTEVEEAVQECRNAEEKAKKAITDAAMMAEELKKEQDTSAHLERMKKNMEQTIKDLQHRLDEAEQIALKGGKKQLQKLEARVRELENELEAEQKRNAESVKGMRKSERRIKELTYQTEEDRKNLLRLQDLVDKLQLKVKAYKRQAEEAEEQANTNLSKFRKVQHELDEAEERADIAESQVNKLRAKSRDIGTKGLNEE
Sequence of bovine β-cardiac myosin S1 (bovine) (P85100 whole entry, chain 2 of 2, further chain, the tested form may be a part): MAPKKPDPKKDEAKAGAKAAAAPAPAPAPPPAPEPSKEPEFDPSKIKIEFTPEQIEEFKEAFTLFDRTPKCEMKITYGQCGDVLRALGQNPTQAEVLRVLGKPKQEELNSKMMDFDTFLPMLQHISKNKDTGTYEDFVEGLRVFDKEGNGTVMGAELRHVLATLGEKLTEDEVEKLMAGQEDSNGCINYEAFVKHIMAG
T2 sequence (Q14896 1-258): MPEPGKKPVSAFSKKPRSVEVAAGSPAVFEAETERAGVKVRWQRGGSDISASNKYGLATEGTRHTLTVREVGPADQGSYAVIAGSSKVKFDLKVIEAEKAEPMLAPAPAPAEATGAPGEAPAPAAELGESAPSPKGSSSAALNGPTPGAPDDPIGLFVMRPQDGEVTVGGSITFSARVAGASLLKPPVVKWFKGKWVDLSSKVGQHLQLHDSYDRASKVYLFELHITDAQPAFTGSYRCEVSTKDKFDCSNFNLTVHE
T1 sequence (Q9BE39 whole entry, chain 1 of 2, the tested form may be a part): as the sequence (Q9BE39 whole entry, chain 1 of 2, the tested form may be a part) above
T1 sequence (P85100 whole entry, chain 2 of 2, the tested form may be a part): as the sequence (P85100 whole entry, chain 2 of 2, further chain, the tested form may be a part) above
T4 sequence (Q14896 1-101): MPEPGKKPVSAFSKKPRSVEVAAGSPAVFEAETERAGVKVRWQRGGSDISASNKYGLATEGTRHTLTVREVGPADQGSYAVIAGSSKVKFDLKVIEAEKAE
T7 sequence (Q14896 1-452): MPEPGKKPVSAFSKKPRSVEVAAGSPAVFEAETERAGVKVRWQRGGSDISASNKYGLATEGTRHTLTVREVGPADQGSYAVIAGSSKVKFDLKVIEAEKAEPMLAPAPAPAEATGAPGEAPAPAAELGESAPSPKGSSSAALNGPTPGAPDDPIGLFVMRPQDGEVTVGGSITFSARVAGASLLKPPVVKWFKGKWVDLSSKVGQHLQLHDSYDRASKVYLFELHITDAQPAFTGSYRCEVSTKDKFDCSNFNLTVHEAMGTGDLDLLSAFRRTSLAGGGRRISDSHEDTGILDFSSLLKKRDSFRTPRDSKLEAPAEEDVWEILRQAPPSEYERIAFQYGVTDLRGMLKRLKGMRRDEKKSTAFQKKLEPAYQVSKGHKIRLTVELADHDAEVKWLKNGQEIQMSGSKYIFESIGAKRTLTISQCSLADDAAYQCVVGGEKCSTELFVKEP
T6 sequence (Q14896 362-452): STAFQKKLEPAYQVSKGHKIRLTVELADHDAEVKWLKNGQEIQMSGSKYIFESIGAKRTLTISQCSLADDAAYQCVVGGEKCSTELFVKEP
T5 sequence (Q14896 151-258): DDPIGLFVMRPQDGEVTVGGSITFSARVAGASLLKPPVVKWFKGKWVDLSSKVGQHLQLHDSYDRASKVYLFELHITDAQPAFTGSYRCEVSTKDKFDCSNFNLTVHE

C0C1 fragment of cMyBP-C (from UniProt Q14896 1-258) (domain or fragment)
Kd [1]: 3.8 µM

C0C2, cMyBP-C spanning domains C0 to C2 (from UniProt Q14896 1-452) (domain or fragment)
Kd [1]: 3.4 µM
Kd [2]: 6.5 µM

C0C2-3P, tris-phosphorylated C0C2 (from UniProt Q14896 1-452) (domain or fragment)
Kd [1]: 2.2 µM

C0C2-truncated cMyBP-C (ΔC0C2-cMyBP-C) (from UniProt Q14896 453-1274) (domain or fragment)
Kd [1]: 0.51 µM

C2C4 segment of cMyBP-C (from UniProt Q14896 362-633) (domain or fragment)
Kd [1]: 0.38 µM

C5C7 segment of cMyBP-C (from UniProt Q14896 645-967) (domain or fragment)
EC50 [3]: 3.8 µM
Kd [1]: 0.77 µM

C5C7-N755K (from UniProt Q14896 1-1274) (domain or fragment)
Kd [1]: 0.43 µM
Kd [2]: 73.9 µM

C5C7-R820Q (from UniProt Q14896 1-1274) (domain or fragment)
Kd [1]: 1.3 µM
Kd [2]: 59.1 µM

C5C7-R943Q (from UniProt Q14896 1-1274) (domain or fragment)
Kd [1]: 0.61 µM
Kd [2]: 32.6 µM

cMyBP-C (cardiac myosin-binding protein C) C0C2 (C0-P/A-C1-m-C2) (from UniProt Q14896) PKA tris-phosphorylated C0C2-3P, IEC purified
KD [4]: same; reference 3.4 ± 0.3
KD [5]: weaker; reference 3.4 ± 0.1
KD [6]: weaker; reference 2.7 ± 0.1

domain C0 of cMyBP-C (from UniProt Q14896 1-101) (domain or fragment)
Kd [1]: 91.3 µM

domain C1 of cMyBP-C (from UniProt Q14896 151-258) (domain or fragment)
Kd [1]: 3.8 µM

domain C2 of cMyBP-C (from UniProt Q14896 362-452) (domain or fragment)
Kd [1]: 42.3 µM

domain C3 of cMyBP-C (from UniProt Q14896 453-543) (domain or fragment)
Kd [1]: 25 µM

domain C4 of cMyBP-C (from UniProt Q14896 544-633) (domain or fragment)
Kd [1]: 2.5 µM

full-length cardiac myosin-binding protein C (cMyBP-C) (from UniProt Q14896 1-1274) (natural protein)
Kd [1]: 0.3 µM

myosin regulatory light chain (RLC) in miniHMM (from UniProt P10916) cMLCK-phosphorylated miniHMM
KD [7]: same; reference 3.4 ± 0.1
KD [8]: stronger; reference 9.7 ± 0.5

B1
Kd [9]: 0.6 µM
Kd (C0C1 fragment of cMyBP-C): 199 µM
Kd (C5C7 segment of cMyBP-C): 25.8 µM

B2
Kd [10]: 49.7 µM

B3
Kd [11]: 183 µM
Kd [12]: 41.4 µM

B4
Kd (domain C0 of cMyBP-C): 335 µM
Kd (domain C1 of cMyBP-C): 17 µM
Kd (domain C2 of cMyBP-C): 502 µM
Kd [13]: 3.4 µM
Kd (C0C1 fragment of cMyBP-C): 10.3 µM
Kd (C2C4 segment of cMyBP-C): 4.7 µM
Kd (C5C7 segment of cMyBP-C): 3.2 µM
